Measurements reported in paper PMC6135694, “A high-throughput fluorescence polarization assay for discovering inhibitors targeting the DNA-binding domain of signal transducer and activator of transcription 3 (STAT3)”.

Biological target: STAT3 127-688 (UniProt P40763 127-688)
Experiment: competition (fluorescence polarization); competitor vs 20 nM Bodipy-DNA N1, 480 nM protein; 24 hr, 4 C; FP: 20 nM Bodipy-DNA, 480 nM STAT3 127-688, 25 mM Tris pH 8.5 (protein purification and DNA annealing buffer; full assay buffer not in material), NaCl < 200 uM
Conditions: protein: recombinant, blunt

Chain of STAT3 127-688 (P40763 127-688): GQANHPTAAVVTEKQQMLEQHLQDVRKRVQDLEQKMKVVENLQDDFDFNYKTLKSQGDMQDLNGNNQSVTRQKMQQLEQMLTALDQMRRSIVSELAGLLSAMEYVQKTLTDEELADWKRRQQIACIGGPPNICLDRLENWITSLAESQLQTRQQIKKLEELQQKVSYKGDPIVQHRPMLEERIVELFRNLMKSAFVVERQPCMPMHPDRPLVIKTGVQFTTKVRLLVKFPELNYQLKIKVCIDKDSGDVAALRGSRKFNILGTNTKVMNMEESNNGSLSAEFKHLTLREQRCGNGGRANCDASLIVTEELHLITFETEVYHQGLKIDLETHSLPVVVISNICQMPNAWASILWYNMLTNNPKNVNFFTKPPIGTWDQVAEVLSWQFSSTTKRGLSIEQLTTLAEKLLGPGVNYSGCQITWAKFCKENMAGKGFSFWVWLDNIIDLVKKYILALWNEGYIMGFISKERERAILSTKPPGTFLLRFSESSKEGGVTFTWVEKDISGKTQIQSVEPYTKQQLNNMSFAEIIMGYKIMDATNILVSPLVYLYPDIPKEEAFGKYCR

Row | Binder | IC50 | IC50 (self-complementary, 2 copies of strand)
1 | unlabelled consensus DNA 12-mer (dsDNA) DNA 1: ATTTCCCGTAAA DNA 2: TTTACGGGAAAT | 0.3 ± 0.2 µM | 
2 | unlabelled non-consensus DNA 12-mer (dsDNA) DNA 1: GTACCATGGTAC DNA 2: GTACCATGGTAC |  | 2.3 ± 0.66 µM
